Experimental findings from article PMC7967050 (2021) are described below.

For this experiment, the target named is Recombinant human CD38 extracellular domain (amino acids 43–300, hCD38-ECD) (human, UniProt P28907 43-300, biotin (EZ-Link NHS-PEG4-biotin) for panning and for capture on the SA biosensor; not said for the cross-linking). The experiment is described as follows: BLI. Background: Biolayer interferometry detects binding as a change in optical thickness at a sensor tip.

B1: anti-CD38 scFv antibody RP02 (scFv, V domains shown)
VH: PAQLVESGPGLVKPSGTLSLTCAVSGGSISSSNWWSWVRQPPGKGLEWIGEIYHSGSTNYNPSLKSRVTISVDKSKNQFSLKLSSVTAADTAVYYCAREDYYYYMDVWGKGTTVTVQS
VL: QSVLTQPPSVSAAPGQKVTISCSGSSSNIGNNYVSWYQQLPGTAPKLLIYDNNKRPSGIPDRFSGSKSGTSATLGITGLQTGDEADYYCGTWDSSLSAGVFGGGTKLTVL
Consider B1, for which the dissociation rate constant (koff) (usually the first-order rate constant of dissociation) came to 0.0034 s⁻¹.

B2: high-affinity anti-CD38 antibody 028 (scFv) (scFv, V domains shown)
VH: QVQLVQSGAEVKKPGSSVKVSCKAFGGTFSSYAISWVRQAPGQGLEWMGRIIRFLGIANYAQKFQGRVTLIADKSTNTAYMELSSLRSEDTAVYYCAGEPGERDPDAVDIWGQGTMVTVSS
VL: DIQMTQSPSSLSASVGDRVTITCRASQGIRSWLAWYQQKPEKAPKSLIYAASSLQSGVPSRFSGSGSGTDFTLTISSLQPEDFATYYCQQYNSYPLTFGGGTKVEIK
Regarding B2, the koff turned out to be 0.00012 s⁻¹.
